This passage reports ratio of band intensity, mutant to WT BICD2 (lysate only), fold increase of the pull-down and BICD2 molecules per Rab6a^GTP liposome (molecules per liposome) results from publication PMC5626548.

Assay [1] concerns the target full-length BICD2 F739I (mouse) (UniProt Q921C5). The experiment in a line: pull-down.
In assay [2] the target is full-length BICD2 (Bicaudal D2), wild type (mouse) (UniProt Q921C5). Kind of assay: pull-down.
For assay [3], the target named is full-length BICD2 I189F (mouse) (UniProt Q921C5). Kind of assay: pull-down.
Assay [4] concerns the target full-length BICD2 S107L (mouse) (UniProt Q921C5). Kind of assay: pull-down.
Assay [5] concerns the target full-length BICD2 N188T (mouse) (UniProt Q921C5). Kind of assay: pull-down.
Assay [6] deals with Rab6a^GTP (Rab6a–Q72L, aa 8–195, KCK motif) linked to liposomes (mouse) (UniProt P35279). The experiment in a line: fluorescence intensity of BICD2–GFP on liposomes.

For the substance “dynactin, endogenous in porcine brain lysate (from UniProt A0A287B8J2 1-1281) (complex)”, the ratio of band intensity, mutant to WT BICD2 (lysate only) amounted to 3.65 in assay [1], 1.88 in assay [3], 2.88 in assay [4] and 3.86 in assay [5]. In assay [2], this substance returned a fold increase of the pull-down at the highest Rab6a^GTP concentration of 10 fold.

On to “cytoplasmic dynein, endogenous in porcine brain lysate (complex)”, for which the ratio of band intensity, mutant to WT BICD2 (lysate only) worked out at 1.95 in assay [1], 1.61 in assay [3], 2.44 in assay [4] and 2.24 in assay [5].

Regarding “full-length BICD2 (Bicaudal D2), wild type (from UniProt Q921C5 1-820) (natural protein)”, in assay [6], the BICD2 molecules per Rab6a^GTP liposome (molecules per liposome) was found to be 6.01.
